Several values for one entry are separate records, joined by “and”; a condition that tells them apart may be missing. Equal entries are not always repeated. Where two headings read alike, the source gives them in different places.
B1: Full-length FtsZ (wild type) (natural protein, Bacillus subtilis, UniProt P17865 1-382, looked up)
chain: MLEFETNIDGLASIKVIGVGGGGNNAVNRMIENEVQGVEYIAVNTDAQALNLSKAEVKMQIGAKLTRGLGAGANPEVGKKAAEESKEQIEEALKGADMVFVTAGMGGGTGTGAAPVIAQIAKDLGALTVGVVTRPFTFEGRKRQLQAAGGISAMKEAVDTLIVIPNDRILEIVDKNTPMLEAFREADNVLRQGVQGISDLIATPGLINLDFADVKTIMSNKGSALMGIGIATGENRAAEAAKKAISSPLLEAAIDGAQGVLMNITGGTNLSLYEVQEAADIVASASDQDVNMIFGSVINENLKDEIVVTVIATGFIEQEKDVTKPQRPSLNQSIKTHNQSVPKREPKREEPQQQNTVSRHTSQPADDTLDIPTFLRNRNKRG

Experiments:
[1] = target: the molecule itself; experiment: cell-based or functional assay
[2] = target: T1, FtsZ core (residues 1-315) (Bacillus subtilis, UniProt P17865 1-315); experiment: ITC; displacement: pre-formed MinCN:Core complex (45 µM MinCN + 5 µM Core, 9:1) in the cell, Tail titrated to 10 µM final; TKEG buffer, 25°C; conditions: both partners purified
T1 construct: FtsZ, Bacillus subtilis, globular core, residues 1-315; The printed purification is TALON resin with elution by AcTEV protease; also called FtsZ globular core; tailless core; source: E. coli BL21 Star (DE3), purified
T1 sequence (looked up): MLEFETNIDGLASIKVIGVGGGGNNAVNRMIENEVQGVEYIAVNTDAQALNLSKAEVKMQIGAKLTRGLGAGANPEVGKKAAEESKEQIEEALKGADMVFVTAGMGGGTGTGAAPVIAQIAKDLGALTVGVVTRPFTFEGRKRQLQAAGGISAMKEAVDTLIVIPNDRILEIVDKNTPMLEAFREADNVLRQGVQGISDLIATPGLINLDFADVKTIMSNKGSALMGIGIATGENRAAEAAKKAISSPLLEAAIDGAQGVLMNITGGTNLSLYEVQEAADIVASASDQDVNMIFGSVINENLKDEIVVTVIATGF

[3] = target: B1; experiment: ITC; full-length FtsZ or FtsZ core (5 µM) in the cell, FtsZ tail or MinCN (50 µM) in the syringe; TKEG buffer (50 mM Tris pH 8, 50 mM KCl, 1 mM EDTA, 5% glycerol), 25°C; one-site model; conditions: both partners purified
[4] = target: T1, FtsZ core (residues 1-315); experiment: as above; conditions: both partners purified
[5] = target: T2, FtsZ core (residues 1-315) D210A/D213A (Bacillus subtilis, UniProt P17865 1-315, D210A | D213A); experiment: as above; conditions: both partners purified
T2 construct: FtsZ, Bacillus subtilis, globular core, residues 1-315, D210A/D213A; see S1 Appendix; also called acidic patch mutant core; source: E. coli BL21 Star (DE3), purified
T2 sequence (looked up): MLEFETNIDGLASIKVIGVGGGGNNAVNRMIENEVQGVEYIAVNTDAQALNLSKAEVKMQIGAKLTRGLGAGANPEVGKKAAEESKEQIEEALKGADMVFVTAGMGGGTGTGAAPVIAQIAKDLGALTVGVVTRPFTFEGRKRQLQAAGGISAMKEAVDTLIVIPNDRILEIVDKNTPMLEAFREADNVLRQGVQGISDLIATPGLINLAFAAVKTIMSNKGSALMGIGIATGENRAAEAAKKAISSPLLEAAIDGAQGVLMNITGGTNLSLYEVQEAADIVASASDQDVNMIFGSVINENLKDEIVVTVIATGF

[6] = target: T3, FtsZ core (residues 1-315), wild type (Bacillus subtilis, UniProt P17865 1-315); experiment: ITC; competition: FtsZ tail titrated into a pre-formed MinCN:Core complex (45 µM MinCN + 5 µM Core, 9:1, ~99% occupancy); TKEG buffer, 25°C; conditions: both partners purified
T3 construct: FtsZ of Bacillus subtilis, globular core, residues 1-315; The plasmid paragraph names 'full-length B. subtilis FtsZ and variants' in pET-28a (His6, TEV site); also called FtsZ Core WT; tailless core; source: E. coli One Shot BL21 Star (DE3), purified (TALON resin, eluted with AcTEV protease); not shown: His6, N-terminal, cleaved
T3 sequence (looked up): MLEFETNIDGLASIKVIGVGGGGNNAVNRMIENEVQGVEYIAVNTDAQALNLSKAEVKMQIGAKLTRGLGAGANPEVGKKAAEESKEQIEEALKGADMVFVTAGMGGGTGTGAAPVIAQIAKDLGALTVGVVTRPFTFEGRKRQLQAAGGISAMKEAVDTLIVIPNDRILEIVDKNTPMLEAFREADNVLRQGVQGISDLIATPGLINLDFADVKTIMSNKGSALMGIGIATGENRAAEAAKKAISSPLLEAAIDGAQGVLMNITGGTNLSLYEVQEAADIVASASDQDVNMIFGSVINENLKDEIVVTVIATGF

[7] = target: T4, FtsZ core (residues 1-315) M292H/I293W/F294K (Bacillus subtilis, UniProt P17865 1-315, M292H | I293W | F294K); experiment: ITC; 5 µM full-length FtsZ or FtsZ core in the cell, 50 µM FtsZ tail or MinCN in the syringe; TKEG buffer (50 mM Tris pH 8, 50 mM KCl, 1 mM EDTA, 5% glycerol), 25°C; 20 injections of 2 µL; each replicate fitted; conditions: both partners purified
T4 construct: FtsZ of Bacillus subtilis, globular core, residues 1-315, M292H/I293W/F294K; Vector and tag as for 'FtsZ and variants'; also called FtsZ Core HWK; MIF pocket triple mutant; source: E. coli One Shot BL21 Star (DE3), purified (TALON resin, eluted with AcTEV protease); not shown: His6, N-terminal, cleaved
T4 sequence (looked up): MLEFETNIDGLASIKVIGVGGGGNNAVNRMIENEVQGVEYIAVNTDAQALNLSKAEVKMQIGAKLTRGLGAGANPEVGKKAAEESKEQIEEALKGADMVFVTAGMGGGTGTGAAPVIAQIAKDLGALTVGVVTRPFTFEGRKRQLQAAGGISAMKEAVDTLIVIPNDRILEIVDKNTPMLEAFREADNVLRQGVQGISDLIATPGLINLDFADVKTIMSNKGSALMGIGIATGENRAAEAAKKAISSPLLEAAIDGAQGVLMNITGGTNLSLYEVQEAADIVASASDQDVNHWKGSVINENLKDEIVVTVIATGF

[8] = target: T3, FtsZ core (residues 1-315), wild type; experiment: as above
[9] = target: T5, FtsZ core (residues 1-315) D210A/D213A (Bacillus subtilis, UniProt P17865 1-315, D210A | D213A); experiment: as above; conditions: both partners purified
T5 construct: FtsZ of Bacillus subtilis, globular core, residues 1-315, D210A/D213A; The sheet's label 'AA' is tied to D210A/D213A by the mean Kd (500.6 nM); Vector and tag as for 'FtsZ and variants'; also called FtsZ Core AA; acidic patch mutant; source: E. coli One Shot BL21 Star (DE3), purified (TALON resin, eluted with AcTEV protease); not shown: His6, N-terminal, cleaved
T5 sequence (looked up): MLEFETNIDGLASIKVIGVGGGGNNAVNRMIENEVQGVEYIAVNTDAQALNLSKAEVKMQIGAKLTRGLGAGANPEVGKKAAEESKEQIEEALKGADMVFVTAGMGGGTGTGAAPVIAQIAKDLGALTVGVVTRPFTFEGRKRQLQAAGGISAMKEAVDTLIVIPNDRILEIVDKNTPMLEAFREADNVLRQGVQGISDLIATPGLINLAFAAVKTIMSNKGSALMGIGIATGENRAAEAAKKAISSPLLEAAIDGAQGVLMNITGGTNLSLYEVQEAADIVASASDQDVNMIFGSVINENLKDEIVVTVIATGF

B1
critical concentration for polymerization (x-intercept of malachite green GTPase rate against FtsZ concentration) [1]: 0.51 µM
specific GTPase activity above the critical concentration (malachite green assay) [1]: 4 GTP/min/FtsZ

B2: Full-length FtsZ S333E (natural protein, Bacillus subtilis, UniProt P17865 1-382, looked up)
chain: MLEFETNIDGLASIKVIGVGGGGNNAVNRMIENEVQGVEYIAVNTDAQALNLSKAEVKMQIGAKLTRGLGAGANPEVGKKAAEESKEQIEEALKGADMVFVTAGMGGGTGTGAAPVIAQIAKDLGALTVGVVTRPFTFEGRKRQLQAAGGISAMKEAVDTLIVIPNDRILEIVDKNTPMLEAFREADNVLRQGVQGISDLIATPGLINLDFADVKTIMSNKGSALMGIGIATGENRAAEAAKKAISSPLLEAAIDGAQGVLMNITGGTNLSLYEVQEAADIVASASDQDVNMIFGSVINENLKDEIVVTVIATGFIEQEKDVTKPQRPSLNQEIKTHNQSVPKREPKREEPQQQNTVSRHTSQPADDTLDIPTFLRNRNKRG
critical concentration for polymerization (x-intercept of malachite green GTPase rate against FtsZ concentration) [1]: 0.37 µM
specific GTPase activity above the critical concentration (malachite green assay) [1]: 5.1 GTP/min/FtsZ

B3: Full-length FtsZ S333A (natural protein, Bacillus subtilis, UniProt P17865 1-382, looked up)
chain: MLEFETNIDGLASIKVIGVGGGGNNAVNRMIENEVQGVEYIAVNTDAQALNLSKAEVKMQIGAKLTRGLGAGANPEVGKKAAEESKEQIEEALKGADMVFVTAGMGGGTGTGAAPVIAQIAKDLGALTVGVVTRPFTFEGRKRQLQAAGGISAMKEAVDTLIVIPNDRILEIVDKNTPMLEAFREADNVLRQGVQGISDLIATPGLINLDFADVKTIMSNKGSALMGIGIATGENRAAEAAKKAISSPLLEAAIDGAQGVLMNITGGTNLSLYEVQEAADIVASASDQDVNMIFGSVINENLKDEIVVTVIATGFIEQEKDVTKPQRPSLNQAIKTHNQSVPKREPKREEPQQQNTVSRHTSQPADDTLDIPTFLRNRNKRG
critical concentration for polymerization (x-intercept of malachite green GTPase rate against FtsZ concentration) [1]: 0.41 µM
specific GTPase activity above the critical concentration (malachite green assay) [1]: 4.7 GTP/min/FtsZ

B4: FtsZ tail (residues 316-382) (domain or fragment, Bacillus subtilis, UniProt P17865 316-382, looked up)
chain: IEQEKDVTKPQRPSLNQSIKTHNQSVPKREPKREEPQQQNTVSRHTSQPADDTLDIPTFLRNRNKRG
notes: FtsZ, Bacillus subtilis, C-terminal tail, residues 316-382 (67 aa); Cloned in pGEX-6P-3 with a PreScission site; also called C-terminal tail; CTT; source: E. coli BL21 Star (DE3), purified; 15N-labelled in M9 minimal medium for NMR
stoichiometry N [2]: 1
Kd [3]: > 2000 nM
Kd [4]: 228 ± 24 nM
Kd [5]: 501 ± 64 nM

B5: FtsZ tail (residues 316-382), wild type (domain or fragment, Bacillus subtilis, UniProt P17865 316-382, looked up)
chain: IEQEKDVTKPQRPSLNQSIKTHNQSVPKREPKREEPQQQNTVSRHTSQPADDTLDIPTFLRNRNKRG
notes: FtsZ of Bacillus subtilis, C-terminal tail, residues 316-382; Cloned into pGEX-6P-3 with a PreScission site; also called FtsZ Tail WT; C-terminal tail; source: E. coli One Shot BL21 Star (DE3), purified
stoichiometry N [6]: 1.03 and 0.948 and 0.919 and 0.965
binding result [7]: binds
Kd ([8]; both partners purified): 260 nM and 222 nM and 229 nM and 202 nM
stoichiometry N ([8]; both partners purified): 1.09 and 1.05 and 1.03 and 1.01
Kd [9]: 428 nM and 529 nM and 545 nM
stoichiometry N [9]: 1.18 and 1.24 and 1.1 and 1.17

B6: FtsZ tail (residues 316-382) I334E (domain or fragment, Bacillus subtilis, UniProt P17865 316-382, looked up)
chain: IEQEKDVTKPQRPSLNQSEKTHNQSVPKREPKREEPQQQNTVSRHTSQPADDTLDIPTFLRNRNKRG
notes: FtsZ, Bacillus subtilis, C-terminal tail, residues 316-382, I334E; pGEX-6P-3 with PreScission site; cleavage of GST not described; also called I334E tail mutant; source: E. coli BL21 Star (DE3), purified
Kd [4]: > 2000 nM

B7: FtsZ tail (residues 316-382) S333A (domain or fragment, Bacillus subtilis, UniProt P17865 316-382, looked up)
chain: IEQEKDVTKPQRPSLNQAIKTHNQSVPKREPKREEPQQQNTVSRHTSQPADDTLDIPTFLRNRNKRG
notes: FtsZ, Bacillus subtilis, C-terminal tail, residues 316-382, S333A; pGEX-6P-3 with PreScission site; cleavage of GST not described; also called S333A tail variant; source: E. coli BL21 Star (DE3), purified
Kd [4]: > 2000 nM

B8: FtsZ tail (residues 316-382) K335A/H337A (domain or fragment, Bacillus subtilis, UniProt P17865 316-382, looked up)
chain: IEQEKDVTKPQRPSLNQSIATANQSVPKREPKREEPQQQNTVSRHTSQPADDTLDIPTFLRNRNKRG
notes: FtsZ, Bacillus subtilis, C-terminal tail, residues 316-382, K335A/H337A; pGEX-6P-3 with PreScission site; cleavage of GST not described; also called K335A/H337A tail double mutant; source: E. coli BL21 Star (DE3), purified
Kd [4]: > 2000 nM

B9: FtsZ tail (residues 316-382) S333E (domain or fragment, Bacillus subtilis, UniProt P17865 316-382, looked up)
chain: IEQEKDVTKPQRPSLNQEIKTHNQSVPKREPKREEPQQQNTVSRHTSQPADDTLDIPTFLRNRNKRG
notes: FtsZ, Bacillus subtilis, C-terminal tail, residues 316-382, S333E; pGEX-6P-3 with PreScission site; cleavage of GST not described; also called S333E tail variant; source: E. coli BL21 Star (DE3), purified
Kd [4]: > 2000 nM

B10: MinCN, the 92aa N-terminal domain of MinC (domain or fragment, Bacillus subtilis, UniProt Q01463 1-92, looked up)
chain: MKTKKQQYVTIKGTKNGLTLHLDDACSFDELLDGLQNMLSIEQYTDGKGQKISVHVKLGNRFLYKEQEEQLTELIASKKDLFVHSIDSEVIT
notes: MinC, Bacillus subtilis, N-terminal domain, 92 aa; amplified from B. subtilis genomic DNA; Cloned in pGEX-6P-1 with a PreScission site; cleavage of GST not described; source: E. coli BL21 Star (DE3), purified
Kd [3]: > 2000 nM
Kd [4]: 495 nM and 405 nM
stoichiometry N [4]: 1 ± 0.15
Kd [8]: 418 nM and 447 nM and 621 nM
stoichiometry N [8]: 1.11 and 0.829 and 1.07

From PMC12747378, “FtsZ phosphorylation modulates tail-core binding to tune cell division in Bacillus subtilis” (PLOS One, 2025)
